Source: patent US20230295259A1 (Protagonist Therapeutics, Inc., priority 2020, published 2023)
Where two headings read alike, the source gives them in different places. Starred links: 1 amine or outer side, 2 acyl side, 3 side chain; linkers in the order of their positions; H or OH if unused. Positions of bridges follow the written chain, without caps; N, C: chain ends. Non-standard residues stand in square brackets, D forms with d. Residues, ends and D or L forms follow the SMILES beside them. Groups on a side chain read outwards from the residue. No end group written: not given here. ξ: configuration not given here. *: point of attachment. PEG12 = NCCOCCOCCOCCOCCOCCOCCOCCOCCOCCOCCOCCOCCC(=O)O; C18 diacid = O=C(O)CCCCCCCCCCCCCCCCC(=O)*; Dip = N[C@H](C(=O)O)C(c1ccccc1)c1ccccc1; γGlu = O=C(O)[C@H](CCC(=O)[*:2])N[*:1]; X9 = O=C([C@@H](N[*:1])SC[*:3])[*:2]; Palmitoyl = CCCCCCCCCCCCCCCC(=O)*; β3hF = N[C@H](CC(=O)O)Cc1ccccc1; Aic = NC1(C(=O)O)Cc2ccccc2C1; ξIle = CC[C@H](C)C(N)C(=O)O; Isovaleryl = CC(C)CC(=O)*; Dap = NC[C@H](N)C(=O)O; AEEA = NCCOCCOCC(=O)O; Npc = nipecotic acid; Ahx = NCCCCCC(=O)O

Key:
human ferroportin = molecular target: T1, human ferroportin (Homo sapiens, UniProt Q9NP59); assay: FPN activity assay: internalization/degradation of ferroportin-GFP in stably transfected HEK293 cells (decrease in GFP fluorescence); assay type: cell-based; conditions: for EC50: HEK293 cells expressing human ferroportin-GFP, at least 18 hours incubation
T1 construct: expressed in transfected cells
T1 sequence (Q9NP59 1-571): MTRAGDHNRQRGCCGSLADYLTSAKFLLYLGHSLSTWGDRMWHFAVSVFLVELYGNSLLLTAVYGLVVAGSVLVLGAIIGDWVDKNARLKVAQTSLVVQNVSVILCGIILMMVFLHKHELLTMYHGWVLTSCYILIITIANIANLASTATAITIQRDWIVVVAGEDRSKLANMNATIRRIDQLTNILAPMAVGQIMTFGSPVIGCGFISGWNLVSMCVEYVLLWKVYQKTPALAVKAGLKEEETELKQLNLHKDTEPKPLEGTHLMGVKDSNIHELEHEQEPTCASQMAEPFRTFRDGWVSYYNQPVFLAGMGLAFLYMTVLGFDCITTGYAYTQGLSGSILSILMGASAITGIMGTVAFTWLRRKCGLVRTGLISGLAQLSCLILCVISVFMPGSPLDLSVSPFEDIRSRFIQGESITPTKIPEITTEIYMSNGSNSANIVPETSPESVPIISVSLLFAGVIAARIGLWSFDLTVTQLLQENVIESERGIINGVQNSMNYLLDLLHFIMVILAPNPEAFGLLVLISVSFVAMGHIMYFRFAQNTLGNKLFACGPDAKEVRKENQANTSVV
Method: Following internalization, the ferroportin protein is degraded.
A retro inverse peptide is a peptide with a reversed sequence in all D amino acids. An example is that Hy-Glu-Thr-His-NH2 becomes Hy-DHis-DThr-DGlu-NH2. The EC50 of these reference compounds for ferroportin internalization/degradation was determined according to the FPN activity assay described above. These peptides served as control standards.
These values were determined as described herein.

LAD2 cells = assay type: cell-based, human; conditions: LAD2 mast cells, β-hexosaminidase release, 30 minutes incubation; read-out: EC50: LAD2
From the text: In anaphylactoid reactions, the main mechanism involves the direct stimulation of mast cells or basophils, leading to the release of anaphylactic mediators such as histamine and β-hexosaminidase. A recent study by McNeil et al. (McNeil B D et al., 2015) reported that MrgprX2, a specific membrane receptor on human mast cells, induces anaphylactoid reactions. The LAD2 (Laboratory of Allergic Diseases 2) human mast cell line, derived from human mast cell sarcoma/leukemia (Kirshenbaum et al., 2003), is commonly employed to study anaphylactoid reactions, because its biological properties are identical to those of primary human mast cells, including the overexpression of the MrgprX2 receptor and sensitivity towards degranulating peptides (Kulka et al., 2008). The release of anaphylactic mediators such as f-hexosaminidase, is assessed by fluorometric quantification.
On the day of the assay, serial dilutions of compounds were added to LAD2 cells plated at 20000 cells/well in a 96-well plate. After incubation for 30 minutes, the amount of β-hexosaminidase released into the supernatants and in cell lysates was quantified using the fluorogenic substrate 4-methylumbelliferyl-N-acetyl-b-D-glucosaminide. Dose-response curves were generated by plotting the % of β-hexosaminidase release (y-axis) against the concentrations of peptides tested (x-axis). […]. (Table 2D).

[1] = molecular target: T2, human ferroportin (SLC40A1) fused in frame with GFP, stably expressed in HEK293 cells (human, UniProt Q9NP59 1-571); assay: cell-based or functional assay
T2 sequence (looked up): T1 sequence (Q9NP59 1-571)

[2] = molecular target: T3, ferroportin endogenously expressed on T47D human breast carcinoma cells (human, UniProt Q9NP59 1-571); assay: cell-based or functional assay
T3 sequence (looked up): T1 sequence (Q9NP59 1-571)

[3] = molecular target: T2, human ferroportin (SLC40A1) fused in …; assay: cell-based or functional assay; remark: listed apart in the source

CC[C@H](C)C1NC(=O)[C@@H](NC(=O)[C@@H]2CCCN2C(=O)[C@@H](NC(=O)[C@H](Cc2cnc[nH]2)NC(=O)[C@@H](NC(=O)[C@H](CCC(=O)OC)NC(=O)CC(C)C)[C@@H](C)O)C(c2ccccc2)c2ccccc2)SCSC[C@@H](C(N)=O)NC(=O)[C@@H](CCCCN)NC(=O)C2(Cc3ccccc3C2)NC(=O)[C@H](CCCCNC(=O)COCCOCCNC(=O)COCCOCCNC(=O)[C@H](CN)NC(=O)CCCCCCCCCCCCCCCCC(=O)O)NC1=O (stereo partly shown) [Compound 506] (Isovaleryl-E(OMe)TH[Dip]P[X9][ξIle]K([AEEA-AEEA-Dap-C18 diacid])[Aic][dK]C-NH2; thioether 6-11)
DC50 (human ferroportin; Table 2D (Illustrative Monomer Hepcidin Analogues), ferroportin-GFP HEK293 cells, read-out: IC50: FPN internalisation): 31.3 nM

Isovaleric Acid-E-T-H-[Dpa]-P—C—I-[Lys(PEG40KB)]-[bhPhe]-[Lys(PEG12_Palm)]-R—C—NH2 [Compound 296]
EC50 (human ferroportin; Table 2B): 1080 nM

Isovaleric Acid-E-T-H-[Dpa]-P-[Cys]-I-[Lys(2Peg20K)]-[bhPhe]-[Lys(2Peg11′_Palm)]-R-[Cys]-NH2 [Compound 50]
EC50 (human ferroportin; Table 2A): 3.31 nM

Isovaleric Acid-E-T-H-[Dpa]-P-[Cys]-I-[Lys(Ac)]-[bhPhe]-[Lys(2Peg20K)]-R-[Cys]-NH2 [Compound 46]
EC50 (human ferroportin; Table 2A): > 3000 nM

Isovaleric Acid-E-T-H-[Dpa]-P-[Cys]-I-[Lys(2Peg11′_Palm)]-[bhPhe]-[Lys(2Peg20K)]-R-[Cys]-NH2 [Compound 47]
EC50 (LAD2 cells): > 12500 nM | EC50 (human ferroportin; Table 2A): 58.2 nM

Isovaleric Acid-E-T-H-[Dpa]-P—C—I-[Lys(PEG12_Palm)]-[bhPhe]-[Lys(PEG40KB)]-R—C—NH2 [Compound 295]
EC50 (human ferroportin; Table 2B): 1780 nM

Isovaleric Acid-E-T-H-[Dpa]-P—C—I-[Lys(1PEG2_1PEG2_Ahx_Palm)]-[bhPhe]-[(D)Lys(PEG20K-C—NH2 [Compound 314]
EC50 (human ferroportin; Table 2B): 357 nM

B1: Compound 98 (peptide)
peptide: XETHXPCIXXXC
modifications: not fully specified; [Diacid_C18_isoGlu_PEG2_PEG2]-E-T-H-[Dpa]-P-[Cys]-I-[(D)Lys]-[bhPhe]-[(D)Lys]-[Cys]-NH2
FPN EC50 [1]: > 3000 nM

B2: Compound 99 (peptide)
peptide: XETHXPCIXXXC
modifications: [C18_diacid_Ahx_PEG2_PEG2]-E-T-H-[Dpa]-P-[Cys]-I-[(D)Lys]-[bhPhe]-[(D)Lys]-[Cys]-NH2
FPN EC50 [1]: > 3000 nM

Isovaleryl-ETH[Dip]PCIK([Ahx-PEG20K])[β3hF]RC-NH2 (disulfide 6-11 (inferred)) [Compound 51]
FPN EC50 [1]: 103 nM

B3: Compound 272 (peptide)
peptide: XETHXXCIXXXC
modifications: Isovaleric Acid-E-T-H-[Dpa]-[Npc]-C-I-[Lys(1PEG2_1PEG2_IsoGlu_C18_Diacid)]-[bhPhe]-[(D)Lys]-C-NH2
IC50: T47D Internalization MSA [2]: 137 nM

Isovaleryl-ETH[Dip]PCIK([PEG12-Palmitoyl])[β3hF]K(PEG30K)RC-NH2 (disulfide 6-12 (inferred)) [Compound 294]
IC50: T47D Internalization MSA [2]: 7.19 nM

B4: Compound 113 (peptide)
peptide: XETHXPCIXXXC
modifications: Isovaleric Acid-E-T-H-[Dpa]-P-[Cys]-I-[Lys(2Peg11′_C18_Diacid)]-[bhPhe]-[(D)Lys]-[Cys]-NH2
FPN EC50 [1]: 8.06 nM

Isovaleryl-ETHFPCIK([AEEA-AEEA-γGlu-C18 diacid])FEPRSK(Ac)GCE (disulfide 6-16 (inferred)) [Compound 215]
FPN EC50 [3]: > 3000 nM

Isovaleryl-ETH[Dip][Npc]CI[dK][β3hF]K([Ahx-Palmitoyl])[dK]C-NH2 (disulfide 6-12 (inferred)) [Compound 5]
FPN EC50 [1]: 2.88 nM

Isovaleryl-ETH[Dip]PCIK(PEG40KB)[β3hF]K([PEG12-Palmitoyl])RC-NH2 (disulfide 6-12 (inferred)) [Compound 296]
IC50: T47D Internalization MSA [2]: 109 nM

B5: Compound 123 (peptide)
peptide: XETHXPCIXXXCX
modifications: Isovaleric Acid-E-T-H-[Dpa]-P-[Cys]-I-[Lys(Ac)]-[bhPhe]-[(D)Lys(Ac)]-[Cys]-[(D)Glu]-NH2
FPN EC50 [1]: 90 nM

B6: Compound 279 (peptide)
peptide: XXTHXPCIXXXC
modifications: Isovaleric Acid-[Glu_OMe]-T-H-[Dpa]-P-C-I-[Lys(1PEG2_1PEG2_Dap_C18_Diacid)]-[bhPhe]-[(D)Lys]-C-NH2
FPN EC50 [3]: 11.4 nM
